Kd data for two substances are collected here from PMC7527728, “CPSF6-Dependent Targeting of Speckle-Associated Domains Distinguishes Primate from Nonprimate Lentiviral Integration” (mBio, 2020).

For the assay, the target named is CPSF6_(276–290/F284A) peptide (human). The assay can be described thus: fluorescence polarisation; 150 nM FITC-Ahx-labelled peptide mixed with increasing capsid NTD protein (2 μM to 2 mM) in 50 mM Tris-HCl pH 8.0, 50 mM NaCl, 384-well plates; one-site specific binding model; the EIAV constants are called apparent. Background: In fluorescence polarisation assays a small probe gives low polarisation when free and higher when bound to something large.

For “MLV capsid N-terminal domain (NTD) protein (domain or fragment)”, the Kd was > 8 mM.

With “HIV-1 capsid N-terminal domain (NTD) protein (domain or fragment)”, the Kd is > 6 mM.
